Data reported in patent publication US20150353597A1 (TEXAS A AND M UNIVERSITY SYSTEM, published 2015).

Key:
NC1A-CBD (construct 12) [1] = test: cell-based or functional assay
NC1A-CBD (construct 12) [2] = biological target: T1, NC1A-CBD (construct 12); test: capture from E. coli lysate on chitin-bound NC1A-CBD, 0.5 mM ZnCl2, SDS-PAGE densitometry
T1 construct: free in solution in the kinetic assays
Description: Sample purification via SIRP (FIG. 14): A disposable column containing 150 μL chitin resin was loaded with soluble lysate containing NC1A-CBD in Buffer A (0.5 M NaCl, 10 mM Tris-HCl, pH 8.0) and washed 4 times with 10 column volumes (CV) of Buffer B (0.5 M NaCl, 50 mM NaPOi, pH 6.0). All loading and washing steps were performed in batch phase. The last wash was supplemented with 0.5 mM ZnCl₂. […] The column was subsequently washed with 10 CV of Buffer B with ZnCl₂ (0.5 mM) and finally incubated in 4 CV of Buffer A containing 50 mM DTT at room temperature for 30 min or at 6° C. for 3 h.

ELP-N (construct 5) [3] = biological target: T2, ELP-N (construct 5); test: lysates mixed 10 min at room temperature, 0.4 M ammonium sulfate precipitation of the ELP complex, SDS-PAGE
T2 construct: also called ELP intein N-fragment

ELP-N (construct 5) [4] = biological target: T2, ELP-N (construct 5); test: co-precipitation with ELP-N by ammonium sulfate

B1: C*-PTDH (construct 6) (other)
chain: MIKIATRKYLGKQNVYGIGVERDHNFALKNGFIASNCFNASMLPKLVITHRVHEEILQLLAPHCELITNQTDSTLTREEILRRCRDAQAMMAFMPDRVDADFLQACPELRVIGCALKGFDNFDVDACTARGVWLTFVPDLLTVPTAELAIGLAVGLGRHLRAADAFVRSGKFRGWQPRFYGTGLDNATVGFLGMGAIGLAMADRLQGWGATLQYHARKALDTQTEQRLGLRQVACSELFASSDFILLALPLNADTLHLVNAELLALVRPGALLVNPCRGSVVDEAAVLAALERGQLGGYAADVFEMEDWARADRPQQIDPALLAHPNTLFTPHIGSAVRAVRLEIERCAAQNILQALAGERPINAVNRLPKANPAADLEHHHHHH
notes: also called NpuDnaE C-fragment Asp118Gly fused to phosphite dehydrogenase
- percent of PTDH cleaved from C*-PTDH within 30 seconds, 1:1 molar ratio, 50 mM DTT, 22 C and 6 C (NC1A-CBD (construct 12) [1]): ~50%
- molar ratio of bound C*-POI to NC1A-CBD (NC1A-CBD (construct 12) [2]): 0.35 molar ratio
- binding result (ELP-N (construct 5) [3]): binds

B2: C*-CAT (construct 9) (other)
chain: MIKIATRKYLGKQNVYGIGVERDHNFALKNGFIASNCFNASMEKKITGYTTVDISQWHRKEHFEAFQSVAQCTYNQTVQLDITAFLKTVKKNKHKFYPAFIHILARLMNAHPEFRMAMKDGELVIWDSVHPCYTVFHEQTETFSSLWSEYHDDFRQFLHIYSQDVACYGENLAYFPKGFIENMFFVSANPWVSFTSFDLNVANMDNFFAPVFTMGKYYTQGDKVLMPLAIQVHHAVCDGFHVGRMLNELQQYCDEWQGGALEHHHHHH
notes: also called C*-chloramphenicol acetyl transferase
- binding result (ELP-N (construct 5) [4]): binds
